From US10350158B2, “2′ fluoro-modified RNAs as immunostimulators” (DUKE UNIVERSITY, priority 2013, dated 2019)
Strand notation (5' to 3'): a small letter for the sugar, then the base; units joined by * are phosphorothioate-linked, units joined directly phosphodiester-linked; [ ] holds rarer units or linkages, { } end groups; capitals alone tell only the bases. {ppp} = triphosphate; r = 2'-OH (RNA); f = 2'-fluoro

How the values were obtained:
[1] = target: T1, human TLR3 (Homo sapiens, UniProt O15455); assay: HEK-hTLR3-NFκB/SEAP reporter assay; format: cell-based; conditions: QUANTI-BLUE
T1 construct: host or cells: HEK293 (HEK-hTLR3-NFκB/SEAP)
T1 sequence (O15455 24-904): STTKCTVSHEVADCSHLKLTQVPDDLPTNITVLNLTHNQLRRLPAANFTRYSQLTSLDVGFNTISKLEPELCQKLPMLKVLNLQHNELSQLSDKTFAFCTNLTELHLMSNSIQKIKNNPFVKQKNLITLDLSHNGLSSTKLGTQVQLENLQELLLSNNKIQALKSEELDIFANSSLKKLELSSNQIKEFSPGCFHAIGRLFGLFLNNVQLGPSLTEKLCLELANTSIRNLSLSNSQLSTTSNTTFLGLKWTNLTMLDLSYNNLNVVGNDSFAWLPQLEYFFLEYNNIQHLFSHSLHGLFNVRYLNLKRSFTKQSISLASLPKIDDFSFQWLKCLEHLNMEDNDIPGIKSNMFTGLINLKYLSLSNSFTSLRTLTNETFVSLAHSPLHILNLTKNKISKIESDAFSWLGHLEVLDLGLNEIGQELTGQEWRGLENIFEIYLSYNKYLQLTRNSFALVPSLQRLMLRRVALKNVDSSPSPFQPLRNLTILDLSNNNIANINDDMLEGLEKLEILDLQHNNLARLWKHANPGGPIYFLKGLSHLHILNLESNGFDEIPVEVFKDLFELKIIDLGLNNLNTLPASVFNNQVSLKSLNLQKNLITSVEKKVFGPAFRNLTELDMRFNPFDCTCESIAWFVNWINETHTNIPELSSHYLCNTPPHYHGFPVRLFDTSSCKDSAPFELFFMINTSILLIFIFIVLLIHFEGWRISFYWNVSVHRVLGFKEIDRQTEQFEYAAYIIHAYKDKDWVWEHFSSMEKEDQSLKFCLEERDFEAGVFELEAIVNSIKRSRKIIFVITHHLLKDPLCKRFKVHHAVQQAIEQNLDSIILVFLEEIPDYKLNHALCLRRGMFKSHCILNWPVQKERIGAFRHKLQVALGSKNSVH
Protocol: The human TLR3 reporter cell, HEK-hTLR3-NFκB/SEAP was purchased from Invivogen. These cells were stably co-transfected with the human TLR3 gene and an inducible SEAP (secreted embryonic alkaline phosphatase) reporter gene into HEK293 cells. The SEAP gene is placed under the control of NF-κB and AP-1. […] SEAP gene expression was measured using the SEAP detection media QUANTI-BLUE (Invivogen), according to the manufacturer's instructions. FIG. 3B is a graph showing that TLR7 is not stimulated by the ssRNAs. Human TLR7-expressing HEK293 cells were kindly provided by Dr. Todd Brennan (Duke University, Durham, N.C.). Treatment with R848 but not with polyI:C, polyI:C-DF and 5′ppp 2′F 10F-DF complexes stimulated HEK-TLR7 cells to produce the inflammatory cytokine IL-8. The data represent the mean of two experiments. Error bars represent the S.D.

[2] = test system: WM266-4 cells; assay: Apoptosis / cell death by Annexin V-PE and 7-AAD flow cytometry; format: cell-based, human; conditions: aptamer treated with bacterial alkaline phosphatase (BAP), 0.125 μg/ml
Protocol: For the intracellular delivery of immune stimulatory RNAs, RNAs were transfected with the DharmaFECT® Duo liposomal transfection reagent (Thermo Scientific, Waltham, Mass.) at a transfection reagent (μl):RNA (μg) ratio of 3.75:1, according to the manufacturer's instructions. Unless otherwise stated, for the induction of innate immune responses and apoptosis, immune stimulatory RNAs (500 ng/ml) were transfected into 50 to 70% confluent cells. Cells were incubated with an RNA-transfection agent complex for 5 h, followed by replenishment with fresh culture medium. […]
Growth inhibition relative to untreated cells was quantified at 72 h after RNA transfection using an MTT Cell Proliferation Assay Kit (Cayman Chemicals, Ann Arbor, Mich.), according to the manufacturer's instructions. The percent growth inhibition was calculated by using the following equation: % growth inhibition=([O.D.]untreated−[O.D.]treated)/[O.D.]untreated×100. The induction of cell death was measured 48 h after RNA transfection by flow cytometry after staining with Annexin V-PE and 7-Aminoactinomycin D (7-AAD) using the PE Annexin V Apoptosis Detection Kit I (BD Biosciences, San Jose, Calif.) and analyzed using the CellQuest software (BD Biosciences).

[3] = Serum stability in 10% fetal bovine serum, polyacrylamide gel; format: in vitro ADME; conditions: 37° C., 0 to 24 h
Protocol: FIG. 6A-FIG. 6D are a set of graphs showing that 2′F modification increases nuclease resistance, cytotoxicity and inflammatory cytokine induction of immunostimulatory 5′ppp ssRNAs. FIG. 6A is a graph showing ability of various modified ssRNAs to inhibit the growth of cells over concentration ranges. WM266-4 cells were treated with transfection reagent alone (mock) or the complex of transfection reagent and 5′ppp 10F containing 2′F pyrimidine, 2′OMe pyrimidine or unmodified pyrimidine (2′OH) at various concentrations. The viral dsRNA analog PolyI:C was used as an experimental control. Growth inhibition was assessed at 72 h post treatments using the MTT assay. FIG. 6B is a set of graphs showing cytokine induction after treatment with the indicated ssRNAs. WM266-4 cells were either treated with transfection reagent alone (mock) or the complex of transfection reagent and 5′ppp 2′OH 10F, 5′ppp 2′F 10F, 5′ppp 2′OMe 10F or poly I:C (0.5 μg/ml each). The secretion of IFNβ and IL-8 by the melanoma cells was analyzed at 24 h after treatment by ELISA. The data represent the mean of three experiments. Error bars represent the S.D.; *P<0.05 (5′ppp 2′F 10F vs 5′ppp 2′OH 10F); P<0.001 (5′ppp 2′OMe 10F vs 5′ppp 2′OH 10F). […] RNAs were analyzed on 12% polyacrylamide gels. […] At 4 h, 8, 12 and 24 h after transfection, total RNAs were isolated and cellular 10F RNA levels were analyzed by RT-PCR. […]

B1: 10F: 5′ppp 2′F pyrimidine ssRNA aptamer, 71 nt, human melanocytic cell-targeting, SEQ ID NO: 4 (nucleic acid)
chain: {ppp}-rGrGrGrArGrGrAfCrGrAfUrGfCrGrGfUrAfCfCfUrGrAfCrArGfCrAfUfCfUfUrGrAfUrArAfUrGrGfUfCfCfUrAfCrGrGrArGfCfCrGfUfUfCfCrArGrAfCrGrAfCfUfCrGfCfCfCrGrA
[1]
  stimulation of TLR3 reporter cells (SEAP): not
[2]
  apoptosis after dephosphorylation of the aptamer: partially prevented
[3]
  serum stability: resistant to serum degradation
